Legend:
nOML4-Flag = biological target: T1, nOML4-Flag
T1 chain: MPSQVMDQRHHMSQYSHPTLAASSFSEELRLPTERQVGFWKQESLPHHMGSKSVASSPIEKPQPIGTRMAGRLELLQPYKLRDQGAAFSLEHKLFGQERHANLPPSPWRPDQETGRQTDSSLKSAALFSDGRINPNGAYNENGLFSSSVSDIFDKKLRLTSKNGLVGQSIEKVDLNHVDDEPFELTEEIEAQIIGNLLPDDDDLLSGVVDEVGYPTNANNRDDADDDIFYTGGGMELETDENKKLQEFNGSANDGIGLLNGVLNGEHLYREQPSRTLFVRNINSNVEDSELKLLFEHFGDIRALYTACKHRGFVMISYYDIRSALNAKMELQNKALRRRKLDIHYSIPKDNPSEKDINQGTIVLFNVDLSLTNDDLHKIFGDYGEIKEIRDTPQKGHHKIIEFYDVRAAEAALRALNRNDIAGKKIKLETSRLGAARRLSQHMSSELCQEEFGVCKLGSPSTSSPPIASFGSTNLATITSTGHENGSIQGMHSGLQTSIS

cOML4-Flag = biological target: T2, cOML4-Flag
T2 chain: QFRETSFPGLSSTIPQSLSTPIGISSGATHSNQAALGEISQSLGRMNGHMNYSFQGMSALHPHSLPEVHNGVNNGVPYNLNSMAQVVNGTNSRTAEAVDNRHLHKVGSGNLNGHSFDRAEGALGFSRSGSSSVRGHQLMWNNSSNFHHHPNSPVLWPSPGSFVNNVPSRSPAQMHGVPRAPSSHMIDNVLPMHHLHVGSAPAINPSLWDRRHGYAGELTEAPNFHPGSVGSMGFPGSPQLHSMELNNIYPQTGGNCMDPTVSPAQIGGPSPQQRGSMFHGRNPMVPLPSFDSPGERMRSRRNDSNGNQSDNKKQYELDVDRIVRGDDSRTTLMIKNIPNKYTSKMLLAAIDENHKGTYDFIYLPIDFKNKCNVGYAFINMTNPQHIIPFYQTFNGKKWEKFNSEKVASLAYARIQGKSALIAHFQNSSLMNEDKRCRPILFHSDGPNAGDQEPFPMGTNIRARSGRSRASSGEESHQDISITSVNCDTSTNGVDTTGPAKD

OML4-Flag = biological target: T3, OML4-Flag
T3 chain: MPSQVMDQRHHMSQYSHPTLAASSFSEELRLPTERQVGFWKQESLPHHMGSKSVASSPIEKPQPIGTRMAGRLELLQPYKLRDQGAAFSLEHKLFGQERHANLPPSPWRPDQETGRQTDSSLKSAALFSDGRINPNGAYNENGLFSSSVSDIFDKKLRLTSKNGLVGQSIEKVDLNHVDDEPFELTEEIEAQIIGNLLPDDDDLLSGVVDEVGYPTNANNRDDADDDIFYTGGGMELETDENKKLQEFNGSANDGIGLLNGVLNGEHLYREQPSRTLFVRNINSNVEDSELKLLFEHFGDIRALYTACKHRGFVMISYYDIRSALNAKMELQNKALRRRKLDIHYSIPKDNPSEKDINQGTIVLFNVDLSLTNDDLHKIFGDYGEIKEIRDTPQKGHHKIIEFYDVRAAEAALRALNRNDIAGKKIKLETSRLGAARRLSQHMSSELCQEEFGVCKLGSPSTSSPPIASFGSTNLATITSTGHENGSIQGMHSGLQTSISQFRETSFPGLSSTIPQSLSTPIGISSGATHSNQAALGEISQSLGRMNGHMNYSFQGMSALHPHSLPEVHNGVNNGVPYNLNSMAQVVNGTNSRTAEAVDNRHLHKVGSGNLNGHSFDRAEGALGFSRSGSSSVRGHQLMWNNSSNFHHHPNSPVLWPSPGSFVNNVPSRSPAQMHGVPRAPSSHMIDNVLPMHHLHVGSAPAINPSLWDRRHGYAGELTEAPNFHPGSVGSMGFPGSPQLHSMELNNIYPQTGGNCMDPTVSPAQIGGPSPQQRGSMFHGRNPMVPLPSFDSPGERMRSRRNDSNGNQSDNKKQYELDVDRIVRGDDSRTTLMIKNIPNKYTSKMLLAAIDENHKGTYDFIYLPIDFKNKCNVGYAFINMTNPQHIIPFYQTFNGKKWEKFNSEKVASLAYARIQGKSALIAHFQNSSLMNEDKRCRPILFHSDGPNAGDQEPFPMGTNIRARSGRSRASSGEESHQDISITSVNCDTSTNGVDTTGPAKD

[1] = biological target: T4, OML4 full-length protein, yeast two-hybrid bait (OML4 cDNA in pGBKT7) (rice, UniProt Q64M78 1-1001); test: yeast two-hybrid, OML4 full-length protein as bait
T4 construct: Expressed in yeast cells; also called Mei2-Like protein 4; LARGE1; not shown: fusion partner encoded by vector pGBKT7
T4 sequence: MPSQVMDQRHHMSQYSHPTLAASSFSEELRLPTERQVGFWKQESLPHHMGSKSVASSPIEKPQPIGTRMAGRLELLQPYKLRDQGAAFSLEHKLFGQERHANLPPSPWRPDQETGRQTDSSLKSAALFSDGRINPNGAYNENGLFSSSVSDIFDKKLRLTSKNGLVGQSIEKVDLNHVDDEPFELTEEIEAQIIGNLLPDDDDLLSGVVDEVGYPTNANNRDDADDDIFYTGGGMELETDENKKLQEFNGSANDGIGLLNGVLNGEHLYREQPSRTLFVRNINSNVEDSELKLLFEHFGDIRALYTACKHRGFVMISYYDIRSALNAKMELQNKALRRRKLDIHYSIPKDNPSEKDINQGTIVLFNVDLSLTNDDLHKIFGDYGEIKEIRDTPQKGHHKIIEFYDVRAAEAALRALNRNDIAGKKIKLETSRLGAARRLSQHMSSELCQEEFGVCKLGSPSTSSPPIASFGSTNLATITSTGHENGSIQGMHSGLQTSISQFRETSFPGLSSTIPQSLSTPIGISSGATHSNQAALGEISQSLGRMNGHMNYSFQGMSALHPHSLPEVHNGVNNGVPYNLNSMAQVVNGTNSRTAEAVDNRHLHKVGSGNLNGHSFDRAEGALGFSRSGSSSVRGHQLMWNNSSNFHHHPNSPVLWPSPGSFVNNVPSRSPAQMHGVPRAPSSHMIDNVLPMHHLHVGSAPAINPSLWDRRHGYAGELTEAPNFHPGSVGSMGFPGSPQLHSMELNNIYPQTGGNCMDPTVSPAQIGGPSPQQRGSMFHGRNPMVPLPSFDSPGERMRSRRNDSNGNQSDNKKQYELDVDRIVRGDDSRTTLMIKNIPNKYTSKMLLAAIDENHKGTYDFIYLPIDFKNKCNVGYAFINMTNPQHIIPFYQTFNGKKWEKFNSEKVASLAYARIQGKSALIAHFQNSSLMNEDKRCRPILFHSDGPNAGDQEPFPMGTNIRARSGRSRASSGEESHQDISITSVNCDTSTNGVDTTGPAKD
Text: To further understand the molecular role of OML4 in grain growth control, we identified its interacting partners through a yeast two-hybrid (Y2H) assay. The OML4 full-length protein was used as the bait. Among several interacting proteins, six different clones corresponding to GSK2 were found in this screen. […] We further confirmed the interaction of OML4 with the full length GSK2 in yeast cells (FIG. 5A).
The cDNA sequences of GSK2 and OML4 were amplified using gene-specific primers (Table S4), and products were fused into the linearized pGADT7 and pGBKT7 vectors, respectively. Yeast two-hybrid analysis was conducted according to the manufacturer's instruction (Clontech, USA).

Row | Binder | phosphorylation, phos-tag SDS-PAGE (cOML4(S607A)-FLAG) | phosphorylation level, phos-tag SDS-PAGE (OML4S105A, S607A-MBP) | phosphorylation, in vitro kinase assay, phos-tag SDS-PAGE (nOML4-Flag) | phosphorylation, in vitro kinase assay, phos-tag SDS-PAGE (cOML4-Flag) | phosphorylation, phos-tag SDS-PAGE (nOML4(S105A)-FLAG) | phosphorylation, in vitro kinase assay, phos-tag SDS-PAGE (OML4-Flag) | binding result [1]
1 | GSK2-GST (protein) MDQPAPAPEPMLLDAQPPAAVACDKKQQEGEAPYAEGNDAVTGHIISTTIGGKNGEPKRTISYMAERVVGTGSFGIVFQAKCLETGETVAIKKVLQDRRYKNRELQLMRAMDHPNVISLKHCFFSTTSRDELFLNLVMEYVPETLYRVLKHYSNANHRMPLIYVKLYMYQLFRGLAYIHTVPGVCHRDVKPQNVLVDPLTHQVKLCDFGSAKTLVPGEPNISYICSRYYRAPELIFGATEYTTSIDIWSAGCVLAELLLGQPLFPGESAVDQLVEIIKVLGTPTREEIRCMNPNYTEFRFPQIKAHPWHKVFHKRMPPEAIDLASRLLQYSPSLRCTALDACAHPFFDELREPNARLPNGRPFPPLFNFKHELANSSQELISRLIPEHVRRQATHNFFNTGS | S(105) and S(607) partially influence the phosphorylation of OML4 | Mutations of the two aforementioned Ser residues to Ala reduced the phosphorylation level of OML4, although OML4^S105A,S607A was still phosphorylated by GSK2 | The phosphorylated OML4-Flag, nOML4-Flag and cOML4-Flag were detected in the presence of GSK2-GST, while the phosphorylated OML4-Flag, nOML4-Flag and cOML4-Flag were not found in the absence of GSK2-GST | The phosphorylated OML4-Flag, nOML4-Flag and cOML4-Flag were detected in the presence of GSK2-GST, while the phosphorylated OML4-Flag, nOML4-Flag and cOML4-Flag were not found in the absence of GSK2-GST | S(105) and S(607) partially influence the phosphorylation of OML4 | The phosphorylated OML4-Flag, nOML4-Flag and cOML4-Flag were detected in the presence of GSK2-GST, while the phosphorylated OML4-Flag, nOML4-Flag and cOML4-Flag were not found in the absence of GSK2-GST | –
2 | full length GSK2, yeast two-hybrid prey (GSK2 cDNA in pGADT7) (enzyme, Expressed in yeast cells; The six GSK2 clones found in the first screen are not described further; also called glycogen synthase kinase 2; SHAGGY-like kinase; not shown: fusion partner encoded by vector pGADT7) MDQPAPAPEPMLLDAQPPAAVACDKKQQEGEAPYAEGNDAVTGHIISTTIGGKNGEPKRTISYMAERVVGTGSFGIVFQAKCLETGETVAIKKVLQDRRYKNRELQLMRAMDHPNVISLKHCFFSTTSRDELFLNLVMEYVPETLYRVLKHYSNANHRMPLIYVKLYMYQLFRGLAYIHTVPGVCHRDVKPQNVLVDPLTHQVKLCDFGSAKTLVPGEPNISYICSRYYRAPELIFGATEYTTSIDIWSAGCVLAELLLGQPLFPGESAVDQLVEIIKVLGTPTREEIRCMNPNYTEFRFPQIKAHPWHKVFHKRMPPEAIDLASRLLQYSPSLRCTALDACAHPFFDELREPNARLPNGRPFPPLFNFKHELANSSQELISRLIPEHVRRQATHNFFNTGS | – | – | – | – | – | – | binds

Source: patent US20230081195A1 (INSTITUTE OF GENETICS AND DEVELOPMENT BIOLOGY CHINESE …, published 2023)
